According to patent JP2010011840A (dated 2010):

B1: i41SL1-2抗体の軽鎖(i41SL1-2-L) (other, not shown: a dimerising Fc or GST)
light: DIVMTQTQLTLTINIGQPASISCKSSQSLLDSDGKTYLNWLFQRPGQSPKRLIYLVSKLDSGVPDRFTGSGSGTDFTLKISRVEAEDLGVYYCWQGTHFPLTFGAGTKLELRRA
modifications: reduced with 0.2 M β-mercaptoethanol and alkylated with 0.3 M iodoacetamide (positions not stated)
B2: i41SL1-2抗体の重鎖(i41SL1-2-H) (other, not shown: a dimerising Fc or GST)
heavy: QVQLQHSGAELVRPGSSVKVSCKALGYTSTDYEIHWVKQTPVRGLEWIGAIHPGSDVIVYNQKFKGTATLTADKSSSTAYMELRSLTSEDSAVYYCTREGGSVDYVWGQGTLVTVSA
modifications: reduced with 0.2 M β-mercaptoethanol and alkylated with 0.3 M iodoacetamide (positions not stated)

Biological target: T1, CDR1抗原ペプチド(RSSKSLLYSNGNTYLY)
T1 peptide: RSSKSLLYSNGNTYLY
Assay: cell-based or functional assay

| Binder | 回転数(kcat) | 触媒効率(kcat/Km) |
| --- | --- | --- |
| B1 | ~0.005 ratio to trypsin | – |
| B2 | ~0.005 ratio to trypsin | ~0.1 ratio to trypsin |
